The text below walks through data of patent publication US20250215101A1, “DR5 Agonist and PLK1 Inhibitor or CDK Inhibitor Combination Therapy” (Inhibrx Biosciences, Inc., priority 2022, published 2025).

Assay [1] relates to cancer cell lines HT-29, LS174T, SW620, SW837, SW1463, and LS411N. The assay is described as follows: Cytotoxicity screen INBRX-109 + onvansertib, summary over the cell lines. The format is cell-based. The note with it: combination of INBRX-109 and onvansertib. The method, then:
Monolayer cultures of each cell line were harvested for compound screening as detailed below.
Onvansertib: A 10 mg stock of onvansertib was purchased from Selleck Chemicals and was resuspended to 10 mM in DMSO. This was then aliquoted and stored at −80° C. Aliquots were thawed immediately prior to dilution and use in the assay. A 500× master plate of serial dilutions (6-point 5-fold dilutions in 100% DMSO starting at 500 μM, plus a DMSO only control) was prepared and mixed gently with a pipette. To generate a 5× working dilution plate of onvansertib, a 1:100 dilution was performed from the 500× plate into complete media (EMEM).
Also on day 2, test and control articles were added.
On day 4, viability measurements were taken. […] Data was graphed in GraphPad Prism 9.

Assay [2] has as its system panel of colorectal cancer cell lines and panel of pancreatic cell lines. The assay is described as follows: Cytotoxicity screen onvansertib +/- 1 nM INBRX-109, summary over the additional panels. The note with it: combination of INBRX-109 and onvansertib. The format is cell-based. The text has this:
The results for a panel of colorectal cancer cell lines are shown in Table 3 and FIGS. 4-6, and the results for a panel of pancreatic cell lines are shown in Table 4 and FIGS. 7 and 8.

Assay [3] concerns several cancerous cell lines. The assay is described as follows: Previous cytotoxicity assays with several cancerous cell lines. It counts as cell-based.
The subject of assay [4] is OUMS-27. The assay is described as follows: Cell viability (CellTiter-Glo) cytotoxicity assay, INBRX-109 x CDK9 or MCL-1 inhibitor matrix, 48 h, chondrosarcoma line. (In ATP-based viability assays light output follows the ATP content of the culture.)
Procedure: (§1) On day 1, cells were seeded as follows. Monolayer cultures of each cell line (chondrosarcoma: CAL-78, OUMS-27, SW1353, and H-EMC-SS; colorectal cancer: SW620; and synovial sarcoma: HS-SY-II) were harvested for compound screening. Culture medium was aspirated, and the cells were washed once with PBS. Accutase was added and flasks were incubated at 37° C. until cells became detached. An equal volume of complete medium was added to quench the Accutase, and the cells were then pipetted up and down several times to generate a homogenous single cell suspension. The density and viability of cells was determined by Trypan Blue using a TC20 Automated Cell Counter. Experimental cells were resuspended to a concentration of 0.17×10^6/mL in Eagle's Minimum Essential Medium (EMEM)/10% FBS/Anti-Anti media (complete EMEM) and seeded in the inner wells of 384-well luminescence plates at 15 mL/well (2,500/well final). Each cell line was plated in duplicate on separate plates. Outer wells were filled with 50 mL PBS, then plates were incubated in a humidified temperature-controlled 37° C. tissue culture incubator at 5% CO2 overnight for 16 hours.
(§2) These test articles were added, in duplicate, to each cell line. The plates were then centrifuged at 400×g for 1 minute, then incubated in a 37° C. humidity-controlled tissue culture incubator (5% CO2) for 48 hours.
(§3) After incubation with the test articles, viability measurements were taken, briefly. Plates were equilibrated to room temperature for 10 minutes, then 25 μL of CellTiter-Glo 2.0® was added to each well. Plates were spun for 1 minute at 400×g, then covered and incubated in the dark for 10 minutes at room temperature. Any visible bubbles were removed with 100% ethanol vapor, then luminescence (RLU) was read on the Spectra Max M5e plate reader, using the 384-well opaque plate setting and SoftMax® Pro v5.4 software with an integration time of 50 milliseconds. To determine the effect of test articles on cell viability, raw RLU values were exported to Excel and percent survival was calculated as a percentage of vehicle control (0.5% DMSO in EMEM), where the vehicle control is set at 100%. Data was graphed in GraphPad Prism 9.
Assay [5] has as its system SW1353. The description is as above.
Procedure: as §1, §2, §3
Assay [6] concerns H-EMC-SS. The description is as above.
Procedure: as §1, §2, §3
For assay [7], the system named is HS-SY-II. The assay is described as follows: Cell viability (CellTiter-Glo) cytotoxicity assay, INBRX-109 x CDK9 or MCL-1 inhibitor matrix, 48 h, synovial sarcoma line.
Procedure: as §1, §2, §3
The subject of assay [8] is SW620. The assay is described as follows: Cell viability (CellTiter-Glo) cytotoxicity assay, INBRX-109 x CDK9 or MCL-1 inhibitor matrix, 48 h, colorectal cancer line.
Procedure: as §1, §2, §3
Setting [9] is: INBRX-109 + 125 nM flavopiridol.

Consider `CN1CCN(c2ccc(OC(F)(F)F)c(Nc3ncc4c(n3)-c3c(c(C(N)=O)nn3CCO)CC4)c2)CC1` [Onvansertib], for which, in assay [1], the “cell killing by the combination” value was “increased cell killing on every cancer cell line tested”. The “cell killing by the combination compared to either agent alone” value in assay [2] is recorded as “increased cell killing”.

B1: INBRX-109: DR5-binding polypeptide consisting of SEQ ID NO: 7 (two VHH domains and an Fc region); DR5 agonist (protein)
chain: EVQLLESGGGEVQPGGSLRLSCAASGLTFPNYGMGWFRQAPGKEREFVSAIYWSGGTVYYAESVKGRFTISRDNAKNTLYLQMSSLRAEDTAVYYCAVTIRGAATQTWKYDYWGQGTLVTVKPGGSGGSEVQLLESGGGEVQPGGSLRLSCAASGLTFPNYGMGWFRQAPGKEREFVSAIYWSGGTVYYAESVKGRFTISRDNAKNTLYLQMSSLRAEDTAVYYCAVTIRGAATQTWKYDYWGQGTLVTVKPGGGGDKTHTCPPCPAPGGPSVFLFPPKPKDTLMISRTPEVTCVVVDVSHEDPEVKFNWYVDGVEVHNAKTKPREEQYNSTYRVVSVLTVLHQDWLNGKEYKCKVSNKALPAPIEKTISKAKGQPREPQVYTLPPSRDELTKNQVSLTCLVKGFYPSDIAVEWESNGQPENNYKTTPPVLDSDGSFFLYSKLTVDKSRWQQGNVFSCSVMHEALHNHYTQKSLSLSPGK
modifications: INBRX-109
notes: DR5 agonist
The term EC50 denotes the concentration needed to bring the measured effect to its halfway point. As to B1, in assay [3], the maximally efficacious concentration worked out at 1 nM. The EC50 in assay [4] (INBRX-109 + 2 μM AZD-5991) was 8.71 pM; in assay [4] (INBRX-109 only (Table 5)), 982 pM; in assay [4] (INBRX-109 only (Table 7)), more than 4090 pM; in assay [4] (INBRX-109 only (Table 11)) it was “Unstable”; in assay [4] (INBRX-109 only (Table 13)), 8870 pM; in assay [5] (INBRX-109 + 125 nM enitociclib) it was 1.05 pM. In addition, the EC50 in assay [5] (setting [9]) was 2.81 pM; in assay [5] (INBRX-109 + 2 μM AZD-5991), 5.33 pM; in assay [5] (INBRX-109 only (Table 5)), “unstable”; in assay [5] (INBRX-109 only (Table 7)), “unstable”; in assay [5] (INBRX-109 only (Table 9)) it was “Unstable”; in assay [5] (INBRX-109 only (Table 11)) it was 9.1 pM. Also, the EC50 result in assay [5] (INBRX-109 only (Table 13)) is “Unstable”; in assay [6] (INBRX-109 + 125 nM enitociclib) it was 2.33 pM; in assay [6] (setting [9]), 1.46 pM; in assay [6] (INBRX-109 + 2 μM AZD-5991) it was 2.59 pM; in assay [6] (INBRX-109 only (Table 5)), 2.2 pM; in assay [6] (INBRX-109 only (Table 7)), 1.96 pM. Further, the concentration giving a half-maximal response (EC50) was 9.25 pM in assay [6] (INBRX-109 only (Table 9)); 9.26 pM in assay [6] (INBRX-109 only (Table 11)); 10.2 pM in assay [6] (INBRX-109 only (Table 13)); 646 pM in assay [7] (INBRX-109 + 125 nM enitociclib); 1.93 pM in assay [7] (setting [9]); “Unstable” in assay [7] (INBRX-109 + 2 μM AZD-5991). Further, the EC50 result is “Unstable” in assay [7] (INBRX-109 only (Table 9)); 11 pM in assay [7] (INBRX-109 only (Table 11)); 5.78 pM in assay [8] (INBRX-109 + 2 μM AZD-5991); 7.8 pM in assay [8] (INBRX-109 only (Table 5)); 98.1 pM in assay [8] (INBRX-109 only (Table 7)); 1.37 pM in assay [8] (INBRX-109 only (Table 9)). Moreover, the half-maximal effective concentration (EC50) came out at 1.98 pM in assay [8] (INBRX-109 only (Table 11)) and 9.84 pM in assay [8] (INBRX-109 only (Table 13)).
